These results are taken from paper PMC5854672, “Solution structure of extracellular loop of human β4 subunit of BK channel and its biological implication on ChTX sensitivity” (Scientific Reports, 2018).

Assay [1] addresses T1, mSlo1/β4(N123R) channel (mouse | human, UniProt Q08460 1-1209; Q86W47 1-210, N123R).
T1 construct: mSlo1, BK channel α subunit (KCNMA1) of mouse, full-length cDNA, GenBank HQ221747.1; human BK channel β4 subunit (KCNMB4), full-length cDNA, GenBank AF207992.1; source: HEK293, transiently co-transfected (pcDNA3.1(+)), in excised membrane patches; copies: 4 + 4
Description: patch-clamp electrophysiology (time course of current block); outside-out patches of transfected HEK293 cells perfused with 1 μM ChTX; steps to +100 mV, intracellular 10 μM Ca2+; τon and τoff fitted to a first order bimolecular reaction scheme; KD = [ChTX]/((τoff/τon) − 1). Particulars: one partner purified.

Assay [2] addresses T2, mSlo1/β4(N123I) channel (mouse | human, UniProt Q08460 1-1209; Q86W47 1-210, N123I).
T2 construct: mSlo1, BK channel α subunit (KCNMA1) of mouse, full-length cDNA, GenBank HQ221747.1; human BK channel β4 subunit (KCNMB4), full-length cDNA, GenBank AF207992.1; source: HEK293, transiently co-transfected (pcDNA3.1(+)), in excised membrane patches; copies: 4 + 4
Described as above. Particulars: one partner purified.

For assay [3], the target named is T3, mSlo1/β4(H101Y) channel (mouse | human, UniProt Q08460 1-1209; Q86W47 1-210, H101Y).
T3 construct: mSlo1, BK channel α subunit (KCNMA1) of mouse, full-length cDNA, GenBank HQ221747.1; human BK channel β4 subunit (KCNMB4), full-length cDNA, GenBank AF207992.1; source: HEK293, transiently co-transfected (pcDNA3.1(+)), in excised membrane patches; copies: 4 + 4
The assay is described as above. As to conditions: one partner purified.

Assay [4] deals with T4, mSlo1 channel (BKα subunit of mouse, alone) (mouse, UniProt Q08460 1-1209).
T4 construct: mSlo1, BK channel α subunit (KCNMA1) of mouse, full-length cDNA, GenBank HQ221747.1; tetrameric Slo1; also called mSlo1 alone channel; source: HEK293, transiently transfected (pcDNA3.1(+)), in excised membrane patches
The assay is described as above. Particulars: one partner purified.

The target of assay [5] is T5, mSlo1/β4(N123A) channel (mouse | human, UniProt Q08460 1-1209; Q86W47 1-210, N123A).
T5 construct: mSlo1, BK channel α subunit (KCNMA1) of mouse, full-length cDNA, GenBank HQ221747.1; human BK channel β4 subunit (KCNMB4), full-length cDNA, GenBank AF207992.1; source: HEK293, transiently co-transfected (pcDNA3.1(+)), in excised membrane patches; copies: 4 + 4
The assay is described as above. As to conditions: one partner purified.

For assay [6], the target named is T6, mSlo1/β4(N123Y) channel (mouse | human, UniProt Q08460 1-1209; Q86W47 1-210, N123Y).
T6 construct: mSlo1, BK channel α subunit (KCNMA1) of mouse, full-length cDNA, GenBank HQ221747.1; human BK channel β4 subunit (KCNMB4), full-length cDNA, GenBank AF207992.1; source: HEK293, transiently co-transfected (pcDNA3.1(+)), in excised membrane patches; copies: 4 + 4
The assay is described as above. Particulars: one partner purified.

Assay [7] has as its target T7, mSlo1/β4(N123D) channel (mouse | human, UniProt Q08460 1-1209; Q86W47 1-210, N123D).
T7 construct: mSlo1, BK channel α subunit (KCNMA1) of mouse, full-length cDNA, GenBank HQ221747.1; human BK channel β4 subunit (KCNMB4), full-length cDNA, GenBank AF207992.1; source: HEK293, transiently co-transfected (pcDNA3.1(+)), in excised membrane patches; copies: 4 + 4
Described as above. As to conditions: one partner purified.

Assay [8] has as its target T8, mSlo1/β4(N123L) channel (mouse | human, UniProt Q08460 1-1209; Q86W47 1-210, N123L).
T8 construct: mSlo1, BK channel α subunit (KCNMA1) of mouse, full-length cDNA, GenBank HQ221747.1; human BK channel β4 subunit (KCNMB4), full-length cDNA, GenBank AF207992.1; source: HEK293, transiently co-transfected (pcDNA3.1(+)), in excised membrane patches; copies: 4 + 4
Described as above. Particulars: one partner purified.

Assay [9] concerns the target T9, mSlo1/β4(N123V) channel (mouse | human, UniProt Q08460 1-1209; Q86W47 1-210, N123V).
T9 construct: mSlo1, BK channel α subunit (KCNMA1) of mouse, full-length cDNA, GenBank HQ221747.1; human BK channel β4 subunit (KCNMB4), full-length cDNA, GenBank AF207992.1; source: HEK293, transiently co-transfected (pcDNA3.1(+)), in excised membrane patches; copies: 4 + 4
The description is as above. Particulars: one partner purified.

In assay [10] the target is T10, mSlo1/β4(N123E) channel (mouse | human, UniProt Q08460 1-1209; Q86W47 1-210, N123E).
T10 construct: mSlo1, BK channel α subunit (KCNMA1) of mouse, full-length cDNA, GenBank HQ221747.1; human BK channel β4 subunit (KCNMB4), full-length cDNA, GenBank AF207992.1; source: HEK293, transiently co-transfected (pcDNA3.1(+)), in excised membrane patches; copies: 4 + 4
The description is as above. As to conditions: one partner purified.

Assay [11] deals with T11, mSlo1/β4(N123F) channel (mouse | human, UniProt Q08460 1-1209; Q86W47 1-210, N123F).
T11 construct: mSlo1, BK channel α subunit (KCNMA1) of mouse, full-length cDNA, GenBank HQ221747.1; human BK channel β4 subunit (KCNMB4), full-length cDNA, GenBank AF207992.1; source: HEK293, transiently co-transfected (pcDNA3.1(+)), in excised membrane patches; copies: 4 + 4
The description is as above. Particulars: one partner purified.

Assay [12] deals with T12, mSlo1/β4 channel (mouse | human, UniProt Q08460 1-1209; Q86W47 1-210).
T12 construct: mSlo1, BK channel α subunit (KCNMA1) of mouse, full-length cDNA, GenBank HQ221747.1; human BK channel β4 subunit (KCNMB4), full-length cDNA, GenBank AF207992.1; also called BKα/β4; source: HEK293, transiently co-transfected (pcDNA3.1(+)), in excised membrane patches; copies: 4 + 4
The assay is described as above. As to conditions: one partner purified.

Assay [13] addresses T13, mSlo1/β4(N123K) channel (mouse | human, UniProt Q08460 1-1209; Q86W47 1-210, N123K).
T13 construct: mSlo1, BK channel α subunit (KCNMA1) of mouse, full-length cDNA, GenBank HQ221747.1; human BK channel β4 subunit (KCNMB4), full-length cDNA, GenBank AF207992.1; source: HEK293, transiently co-transfected (pcDNA3.1(+)), in excised membrane patches; copies: 4 + 4
The description is as above. As to conditions: one partner purified.

Assay [14] deals with T1, mSlo1/β4(N123R) channel. In words: cell-based or functional assay.
Assay [15] has as its target T5, mSlo1/β4(N123A) channel. In words: cell-based or functional assay.
For assay [16], the target named is T7, mSlo1/β4(N123D) channel. In words: cell-based or functional assay.
Assay [17] addresses T10, mSlo1/β4(N123E) channel. In words: cell-based or functional assay.
Assay [18] addresses T12, mSlo1/β4 channel. Description: cell-based or functional assay.
The target of assay [19] is T13, mSlo1/β4(N123K) channel. Description: cell-based or functional assay.
For assay [20], the target named is mSlo1 channel (BKα subunit of mouse, alone) (mouse) (UniProt Q08460).
Sequence of mSlo1 channel (BKα subunit of mouse, alone) (mouse) (Q08460 whole entry): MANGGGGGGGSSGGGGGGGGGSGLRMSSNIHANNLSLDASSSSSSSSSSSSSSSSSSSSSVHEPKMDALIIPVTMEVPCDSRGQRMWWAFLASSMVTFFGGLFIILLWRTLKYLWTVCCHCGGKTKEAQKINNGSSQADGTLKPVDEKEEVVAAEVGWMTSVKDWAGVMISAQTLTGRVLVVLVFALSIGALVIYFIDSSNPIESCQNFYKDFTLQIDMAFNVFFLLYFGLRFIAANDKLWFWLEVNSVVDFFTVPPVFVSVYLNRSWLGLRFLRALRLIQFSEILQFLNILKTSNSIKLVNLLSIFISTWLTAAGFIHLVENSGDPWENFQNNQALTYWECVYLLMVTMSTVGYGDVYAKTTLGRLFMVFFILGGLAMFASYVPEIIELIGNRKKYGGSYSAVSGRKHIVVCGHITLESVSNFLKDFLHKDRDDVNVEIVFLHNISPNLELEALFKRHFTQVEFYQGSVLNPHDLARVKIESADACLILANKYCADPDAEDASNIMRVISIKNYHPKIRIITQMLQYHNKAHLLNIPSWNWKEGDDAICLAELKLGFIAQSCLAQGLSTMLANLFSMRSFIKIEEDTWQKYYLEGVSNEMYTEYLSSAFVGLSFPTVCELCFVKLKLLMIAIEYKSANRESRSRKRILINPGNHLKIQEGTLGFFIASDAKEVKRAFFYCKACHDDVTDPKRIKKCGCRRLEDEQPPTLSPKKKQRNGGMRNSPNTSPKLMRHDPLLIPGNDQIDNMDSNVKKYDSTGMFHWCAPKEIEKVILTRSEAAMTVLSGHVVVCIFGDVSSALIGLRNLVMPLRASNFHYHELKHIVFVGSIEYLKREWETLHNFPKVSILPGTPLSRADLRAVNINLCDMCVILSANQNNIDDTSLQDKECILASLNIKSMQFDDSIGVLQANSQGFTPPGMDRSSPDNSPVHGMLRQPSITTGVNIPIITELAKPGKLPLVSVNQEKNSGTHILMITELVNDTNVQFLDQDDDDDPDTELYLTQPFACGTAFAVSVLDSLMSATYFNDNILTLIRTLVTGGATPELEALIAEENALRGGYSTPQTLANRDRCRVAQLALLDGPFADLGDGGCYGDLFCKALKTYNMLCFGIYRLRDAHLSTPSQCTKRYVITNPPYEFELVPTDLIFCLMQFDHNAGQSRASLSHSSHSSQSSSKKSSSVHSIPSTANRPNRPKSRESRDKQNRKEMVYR

T10 sequence (Q08460 whole entry, stated change not applied, one chain of several): as the sequence (Q08460 whole entry) above
T7 sequence (Q08460 whole entry, stated change not applied, one chain of several): as the sequence (Q08460 whole entry) above
T4 sequence (Q08460 whole entry): as above
T12 sequence (Q08460 whole entry, one chain of several): as the sequence (Q08460 whole entry) above

B1: Charybdotoxin (peptide)
chain: QFTNVSCTTSKECWSVCQRLHNTSRGKCMNKKCRCYS
notes: charybdotoxin (ChTX), scorpion toxin; also called ChTX; source: bought: Sigma-Aldrich (Art. No. C7802)
Consider B1, for which the dissociation constant Kd (commonly the constant that tells how readily two partners part at equilibrium) was 329 nM in assay [1]; 119 nM in [2]; 325 nM in assay [3]; 193 nM in [4]; 96.8 nM in assay [5]; 291 nM in [6]. The Kd in [7] came out at 72.6 nM; in [8], 41.9 nM; in [9], 61.8 nM; in assay [10] it was 80.8 nM; in assay [11] it was 47.1 nM; in assay [13], 44.3 nM. Besides, the τoff in assay [1] was determined as 85.3 s; in assay [2], 38.5 s; in assay [3], 32.6 s; in [4], 21.6 s; in assay [5], 816 s; in assay [6], 26.2 s. For the same molecule, the τoff in [7] was 624 s; in assay [8], 171 s; in assay [9], 53.3 s; in [10], 138 s; in [11], 670 s; in [13], 314 s. Also, the “τon (block at 1 μM ChTX)” value amounted to 21.1 s in assay [1]; 4.1 s in [2]; 8 s in [3]; 3.5 s in [4]; 72 s in assay [5]; 5.9 s in assay [6]. In addition, the “τon (block at 1 μM ChTX)” value in assay [7] is 42.2 s; in [8], 6.9 s; in assay [9], 3.1 s; in assay [10], 10.3 s; in assay [11], 30.1 s; in [12], 60.9 s. For the same molecule, the “τon (block at 1 μM ChTX)” value in assay [13] is 13.3 s. The “inhibition of channel currents by 1 μM ChTX (outside-out patches, HEK293)” value is 36.4% in [14]; ~90% in assay [15]; 46.9% in assay [16]; 96% in [17]; 22.2% in [18]; 89.1% in assay [19].

B2: human β4 subunit of BK channel, full length (natural protein)
chain: MAKLRVAYEYTEAEDKSIRLGLFLIISGVVSLFIFGFCWLSPALQDLQATEANCTVLSVQQIGEVFECTFTCGADCRGTSQYPCVQVYVNNSESNSRALLHSDEHQLLTNPKCSYIPPCKRENQKNLESVMNWQQYWKDEIGSQPFTCYFNQHQRPDDVLLHRTHDEIVLLHCFLWPLVTFVVGVLIVVLTICAKSLAVKAEAMKKRKFS
With B2, the thermodynamic double-mutant cycle on V1/2 of G-V curves (inside-out patches, 10 μM Ca2+): mSlo1(E264A) against β4(N123A), ΔΔV in assay [20] was -42.4 mV.
